Data from US9023343B2, “Phosphorylation-inhibiting agent or dephosphorylating agent for PTEN” (Miyazaki Prefecture, priority 2009, dated 2015).

Tests used:
NDRG2 = target: T1, NDRG2 (Homo sapiens, UniProt Q9UN36); settings: read-out: IC50 for enzymatic activity of NDRG2; concentration of NDRG2 protein 25 ng/ul
T1 sequence (Q9UN36 1-357 isoform Q9UN36-2): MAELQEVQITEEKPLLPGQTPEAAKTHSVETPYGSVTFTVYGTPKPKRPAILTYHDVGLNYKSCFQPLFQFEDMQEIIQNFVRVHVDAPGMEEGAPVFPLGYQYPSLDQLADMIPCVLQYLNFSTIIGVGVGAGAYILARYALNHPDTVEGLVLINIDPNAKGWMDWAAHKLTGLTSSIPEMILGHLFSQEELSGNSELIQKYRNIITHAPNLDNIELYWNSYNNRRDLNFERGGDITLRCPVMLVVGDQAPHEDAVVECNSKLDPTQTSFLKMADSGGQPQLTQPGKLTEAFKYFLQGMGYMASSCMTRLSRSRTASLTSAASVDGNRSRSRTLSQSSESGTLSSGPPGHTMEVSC
Procedure: The GST-NDRG2 protein (10 ng to 250 ng) was added to a reaction solution (pH 5.0) consisting of 100 mM sodium acetate, 0.8 mM DTT, and 10 mM pNPP, and the mixture was allowed to react at 30° C. for 10 minutes. After addition of 500 μl of 5 M NaGH, the reaction was stopped and OD 410 nm of the absorption wavelength for pNP (p-Nitrophenol) was measured. A standard curve was prepared at a concentration of 0.2 to 1.6 nmol of pNP, and an enzyme activity was determined by converting the absorbance into the concentration of pNP.

PTEN = target: T2, PTEN (Homo sapiens, UniProt P60484); test: In vitro dephosphorylation of FLAG-PTEN purified from ATL cell line Su9T-01, Western blot; type: biochemical; settings: 10 ng/ml FLAG-PTEN, 30° C., 30 minutes; phosphorylation-specific anti-PTEN antibodies
T2 construct: made in house; host or cells: ATL cell line Su9T-01, transfected with PTEN/pCMV26; purified on anti-FLAG M2 gel
T2 sequence (P60484 whole entry): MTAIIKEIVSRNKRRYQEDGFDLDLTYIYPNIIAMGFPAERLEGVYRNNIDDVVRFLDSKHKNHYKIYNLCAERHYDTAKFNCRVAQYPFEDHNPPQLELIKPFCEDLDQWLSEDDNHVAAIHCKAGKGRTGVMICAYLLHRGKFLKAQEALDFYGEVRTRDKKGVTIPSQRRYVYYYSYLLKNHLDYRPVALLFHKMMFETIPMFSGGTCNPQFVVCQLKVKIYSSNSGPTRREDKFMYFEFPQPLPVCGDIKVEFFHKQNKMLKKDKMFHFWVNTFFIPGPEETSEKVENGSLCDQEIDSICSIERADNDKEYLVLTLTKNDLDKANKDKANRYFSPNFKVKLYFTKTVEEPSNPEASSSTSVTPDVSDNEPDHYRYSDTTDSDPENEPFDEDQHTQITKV
Procedure: ATL cell line Su9T-01 of 1×10^7 cells were transfected with 20 μg of PTEN/pCMV26 expression vector by electroporation. On day 2 after the transfection, the cells were collected and 500 μl of RIPA buffer solution was added to prepare a cell extract solution. […] The reaction solution was washed with PBS buffer solution, and eluted with 3×FLAG peptide (100 μg/ml).
A reaction solution composed of 25 ng of GST or GST-NDRG2 or one unit of bacterial alkaline phosphatase (BAP) (TAKARA) was reacted with a reaction solution consisting of 20 mM magnesium acetate, 300 μg/mL BSA, 30 μM EDTA, 0.03% β-mercaptoethanol, and 10 ng/ml FLAG-PTEN at 30° C. for 30 minutes. Phosphorylation state of PTEN was analyzed by the Western blot method using anti-PTEN antibodies specific to each phosphorylation.

[1] = pNPP (p-nitrophenyl phosphate) assay of phosphatase activity; type: biochemical; settings: pH 5.0, 10 mM pNPP, 30° C., 10 minutes
Procedure: The GST-NDRG2 protein (10 ng to 250 ng) was added to a reaction solution (pH 5.0) consisting of 100 mM sodium acetate, 0.8 mM DTT, and 10 mM pNPP, and the mixture was allowed to react at 30° C. for 10 minutes. After addition of 500 μl of 5 M […], the reaction was stopped and OD 410 nm of the absorption wavelength for pNP (p-Nitrophenol) was measured. A standard curve was prepared at a concentration of 0.2 to 1.6 nmol of pNP, and an enzyme activity was determined by converting the absorbance into the concentration of pNP.

| Molecule | IC50 (NDRG2) [nM] | dephosphorylation of PTEN (PTEN) | production of pNP (phosphatase activity) [1] |
| --- | --- | --- | --- |
| [F-].[Na+] [sodium fluoride] | 383 | – | – |
| BAP: bacterial alkaline phosphatase (TAKARA), positive control | – | dephosphorylation effects were recognized | – |
| GST: Glutathione S-Transferase protein, negative control | – | not recognized | not observed |
